Key:
[1] = biological target: wild-type KSHV ORF74 expressed in HEK293T cells (Kaposi's Sarcoma-associated Herpesvirus (HHV-8)) (UniProt Q98146)
[2] = biological target: KSHV ORF74 with L169W, L258V and two C-terminal threonines deleted (apo construct) (Kaposi's Sarcoma-associated Herpesvirus (HHV-8)) (UniProt Q98146); assay: cryo-EM structure

## Gαq subunit (Rluc8-fused, TRUPATH) (from UniProt P50148 1-359) (natural protein)
[1]
  BRET2 (TRUPATH) G protein activation in HEK293T cells, Rluc8-Gαq / Gβ / GFP2-Gγ sensor, dose response to recombinant CXCL1: potency of CXCL1: 6.7 pEC50

## KSHV ORF74 with L169W, L258V and two C-terminal threonines deleted (apo construct) (from UniProt Q98146 1-340) (receptor)
[2]
  stoichiometry N: 2

Source: publication PMC12462484
